Target: Taxol-stabilized microtubules (porcine brain tubulin) (porcine)
Test: TIRF single-molecule motility assay

Sequence of Taxol-stabilized microtubules (porcine brain tubulin) (porcine) (P02550 whole entry, chain 1 of 2): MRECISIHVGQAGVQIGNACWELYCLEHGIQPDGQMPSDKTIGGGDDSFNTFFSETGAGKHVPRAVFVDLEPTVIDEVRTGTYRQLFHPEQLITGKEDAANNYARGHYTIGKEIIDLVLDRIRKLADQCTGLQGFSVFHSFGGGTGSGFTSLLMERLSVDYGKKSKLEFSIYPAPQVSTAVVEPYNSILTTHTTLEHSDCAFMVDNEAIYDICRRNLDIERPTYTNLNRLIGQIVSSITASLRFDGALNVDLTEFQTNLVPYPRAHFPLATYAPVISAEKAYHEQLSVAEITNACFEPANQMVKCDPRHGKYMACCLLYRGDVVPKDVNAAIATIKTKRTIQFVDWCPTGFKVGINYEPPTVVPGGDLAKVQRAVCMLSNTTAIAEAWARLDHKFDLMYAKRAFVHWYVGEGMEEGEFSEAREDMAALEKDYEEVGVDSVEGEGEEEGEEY
Sequence of Taxol-stabilized microtubules (porcine brain tubulin) (porcine) (P02554 whole entry, chain 2 of 2, further chain): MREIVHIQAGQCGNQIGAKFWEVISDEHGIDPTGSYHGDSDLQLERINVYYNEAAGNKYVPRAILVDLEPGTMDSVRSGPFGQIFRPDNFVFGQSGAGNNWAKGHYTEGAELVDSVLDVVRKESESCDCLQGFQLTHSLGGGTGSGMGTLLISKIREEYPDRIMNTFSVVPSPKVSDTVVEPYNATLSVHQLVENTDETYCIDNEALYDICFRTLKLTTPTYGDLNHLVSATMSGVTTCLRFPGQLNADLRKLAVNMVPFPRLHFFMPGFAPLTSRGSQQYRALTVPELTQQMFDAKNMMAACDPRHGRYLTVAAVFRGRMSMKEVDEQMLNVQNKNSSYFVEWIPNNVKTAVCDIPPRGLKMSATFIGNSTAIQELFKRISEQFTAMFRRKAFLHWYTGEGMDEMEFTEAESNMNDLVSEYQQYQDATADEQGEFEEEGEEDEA

landing rate (motors/μm/s/μM): 8.3
Substance: full-length KIF5A(∆exon27)::mSca (from UniProt Q12840 1-1032) (natural protein)
